Patent US20150025225A1 (SHIONOGI, published 2015)
Each block holds one binder with its values, some of them ahead of it.

What was measured:
[1] = target: T1, human EL-411-500 fragment (human); assay: sandwich ELISA: 12B10 (5 ug/mL) captured on anti-mouse IgG-Fc plate, serial dilutions of fragment lysate, detection with biotin anti-C2-tag Fab and HRP-streptavidin, A450
T1 construct: Used as HEK293 lysate
T1 chain: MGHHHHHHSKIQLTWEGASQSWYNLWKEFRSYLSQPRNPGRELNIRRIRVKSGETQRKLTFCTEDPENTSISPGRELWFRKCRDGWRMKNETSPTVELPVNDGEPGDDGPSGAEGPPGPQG
Procedure: (§1) Assay buffer containing 15 μl of 12B10 antibody (5 μg/mL) was added to immobilized plate of anti-mouse IgG-Fc antibody and incubated for 2 hr. […] After washing the wells three times with 90 μl of washing buffer, 15 μL of assay buffer containing biotin-labeled anti-C2-tag (Fab) antibody and HRP-labeled Streptavidin (Thermo scientific) were added to the wells and incubated at room temperature for 1 hr. After washing the wells three times with 90 μl of washing buffer, 15 μL of TMB+-Substrate-Chromogen (DAKO) was added and incubated at room temperature for 30 min. The reaction was stopped with adding 15 μL of 0.05M H₂SO₄ and then measured absorbance 450 nm.

[2] = target: T2, human EL-411-459 fragment (human); assay: as above
T2 construct: Used as HEK293 lysate
T2 chain: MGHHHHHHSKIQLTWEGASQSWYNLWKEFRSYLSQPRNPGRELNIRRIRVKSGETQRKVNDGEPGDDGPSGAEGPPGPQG
Procedure: as §1

rabbit EL-C2 tag = target: T3, rabbit EL-C2 tag (rabbit); assay: ELISA-type titration, A450 against antibody concentration; protocol not described in the text
T3 construct: used as cell lysate or heparin extract; also called rabbit EL lysate; rabbit EL enzyme solution
T3 chain: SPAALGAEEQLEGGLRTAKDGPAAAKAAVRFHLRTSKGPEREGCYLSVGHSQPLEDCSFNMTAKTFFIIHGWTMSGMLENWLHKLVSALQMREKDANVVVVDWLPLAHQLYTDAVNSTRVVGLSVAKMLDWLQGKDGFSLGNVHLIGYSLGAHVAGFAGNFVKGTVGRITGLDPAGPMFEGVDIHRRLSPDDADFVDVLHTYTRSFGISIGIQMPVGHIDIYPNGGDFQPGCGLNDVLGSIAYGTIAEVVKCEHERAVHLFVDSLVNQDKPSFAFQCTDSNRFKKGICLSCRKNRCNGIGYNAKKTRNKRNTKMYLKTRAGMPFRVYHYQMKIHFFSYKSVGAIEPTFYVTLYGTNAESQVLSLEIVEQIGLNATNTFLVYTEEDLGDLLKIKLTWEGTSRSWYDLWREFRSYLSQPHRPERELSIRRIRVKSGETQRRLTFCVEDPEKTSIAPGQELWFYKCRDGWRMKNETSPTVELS

mouse EL-C2 tag = target: T4, mouse EL-C2 tag (mouse, UniProt Q9WVG5 21-500); assay: as above
T4 construct: used as heparin extract of transfected HEK293F cells
T4 sequence: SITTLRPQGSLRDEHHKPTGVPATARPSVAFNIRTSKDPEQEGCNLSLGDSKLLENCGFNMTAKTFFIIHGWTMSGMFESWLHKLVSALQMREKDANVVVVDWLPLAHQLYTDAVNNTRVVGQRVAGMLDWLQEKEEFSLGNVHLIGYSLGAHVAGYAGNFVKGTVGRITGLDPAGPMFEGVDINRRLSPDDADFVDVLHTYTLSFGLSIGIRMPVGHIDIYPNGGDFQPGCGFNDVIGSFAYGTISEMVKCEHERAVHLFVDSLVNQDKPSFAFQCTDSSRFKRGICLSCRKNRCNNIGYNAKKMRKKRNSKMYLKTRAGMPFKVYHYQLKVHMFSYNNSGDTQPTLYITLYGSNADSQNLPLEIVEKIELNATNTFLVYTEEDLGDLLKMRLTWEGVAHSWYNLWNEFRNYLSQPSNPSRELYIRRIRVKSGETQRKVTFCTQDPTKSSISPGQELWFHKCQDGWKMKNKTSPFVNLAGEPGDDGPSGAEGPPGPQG

[3] = target: T5, human EL[331-459]-mouse EL-C2 tag (human/mouse chimera, UniProt Q9WVG5 21-500 (mouse entry)); assay: as above
T5 construct: used as heparin extract of transfected HEK293F cells; also called human-mouse chimera EL; Human-Mouse chimeric EL
T5 chain: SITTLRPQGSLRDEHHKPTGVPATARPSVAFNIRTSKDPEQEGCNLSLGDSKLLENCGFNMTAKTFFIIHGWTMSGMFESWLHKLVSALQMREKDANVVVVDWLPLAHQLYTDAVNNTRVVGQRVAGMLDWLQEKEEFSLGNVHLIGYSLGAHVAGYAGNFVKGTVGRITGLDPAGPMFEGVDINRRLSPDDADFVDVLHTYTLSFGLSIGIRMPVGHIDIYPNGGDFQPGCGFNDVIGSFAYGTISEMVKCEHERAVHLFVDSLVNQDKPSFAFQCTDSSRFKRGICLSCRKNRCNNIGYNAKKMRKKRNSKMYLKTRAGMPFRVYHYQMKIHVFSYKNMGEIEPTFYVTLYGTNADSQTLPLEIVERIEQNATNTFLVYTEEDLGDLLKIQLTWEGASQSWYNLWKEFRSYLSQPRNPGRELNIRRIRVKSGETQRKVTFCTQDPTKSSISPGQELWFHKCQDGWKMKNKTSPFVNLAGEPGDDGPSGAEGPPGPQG

[4] = target: T6, cynomolgus monkey EL-C2 tag (cynomolgus monkey, UniProt Q9Y5X9 21-500 (human entry), limits assumed); assay: as above
T6 construct: used as heparin extract of transfected HEK293F cells; also called cynomolgus EL
T6 chain: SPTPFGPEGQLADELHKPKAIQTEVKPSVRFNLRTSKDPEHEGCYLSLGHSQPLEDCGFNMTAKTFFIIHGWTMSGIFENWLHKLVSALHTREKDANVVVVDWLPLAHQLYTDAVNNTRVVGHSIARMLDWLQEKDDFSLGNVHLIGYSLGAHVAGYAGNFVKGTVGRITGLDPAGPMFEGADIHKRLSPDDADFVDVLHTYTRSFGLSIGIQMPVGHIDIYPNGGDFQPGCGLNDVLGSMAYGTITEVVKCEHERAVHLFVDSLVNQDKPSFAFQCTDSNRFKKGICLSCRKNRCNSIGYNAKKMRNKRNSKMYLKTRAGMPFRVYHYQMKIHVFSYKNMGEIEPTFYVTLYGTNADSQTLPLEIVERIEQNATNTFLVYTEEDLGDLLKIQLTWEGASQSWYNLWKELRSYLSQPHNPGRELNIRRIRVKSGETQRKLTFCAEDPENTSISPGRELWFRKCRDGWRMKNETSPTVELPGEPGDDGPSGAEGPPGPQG

binding result [1]: binds
binding result [2]: binds
B1: 12B10 antibody (antibody, IgG2a, V domains shown)
VH: QVTLKESGPGILKPSQTLSLTCSFSGFSLSTSGMGVGWIRQPSGKGLEWLAHIWWNDEKYYNPSLKSQLTISKDTSRNQVFLKITSVDTADTATYYCARSYDGSPFPSWGQGTLVTVSA
VL: DIQMTQSPSSLSASLGGKVTITCKASQDINKYIAWFQHKPGKGPRLLMAYPFTLQPGIPSRFSGNGSGRDYSFSISNLEPEDIATYYCLQYDNLLWTFGGGTRLEIK

EC50 (read off the curve) (rabbit EL-C2 tag): ~7 ng/mL
binding result (mouse EL-C2 tag): binds
EC50 (read off the curve) [3]: ~10 ng/mL
EC50 (read off the curve) [4]: ~6 ng/mL
B2: 47B2 antibody (antibody, IgG2a, V domains shown)
VH: QVALKESGPGILQPSQTLSLTCSFSGFSLSTSGMGVGWIRQPSGKGLEWLAHIWWHGNKYYSTGLKSRLTISKDTSNNQVFLKIASVDTADTATYYCARISAGYPLDYWGQGTSVTVSS
VL: DIQMTQSPSSLSASLGGKVTITCKASQDINKYIVWYQHKPGKGPRLLIHYTSTLQPGFPSRFSGSGSGRDYSLSITNLEPEDIATYYCLQYDNLLWTFGGGTKLEIK
